Experimental data from patent US20220235103A1.
Positions count from the first letter of the chain named.

B1: vS07_29B10 (designed binder)
chain: MRGSHHHHHHGSDLGKKLLQAARAGQLDEVRELLKAGADVNAKDREGITPLHLAAQHGHLEIVEVLLKAGADVNAKDVWGRTPLHLAAWQGHLEIVEVLLKAGADVNAKDLAGATPLHVAALYGHLEIVEVLLKAGADVNAQDKSGKTPADLAARAGHQDIAEVLQKAA
B2: vS07_12C06 (designed binder)
chain: B1 chain with I48K, L53V, H57E, Q90I, L111V, A112S, V119A, Y123H, K134N
B3: vS07_23E04 (designed binder)
chain: B1 chain with R45Q, L53V, Q56H, H57Q, Q90R, L111H, V119A, Y123S
B4: ALE049 (designed binder)
chain: MRGSHHHHHHGSDLGKKLLEAARAGQDDEVRELLKAGADVNAKDYFSHTPLHLAARNGHLKIVEVLLKAGADVNAKDFAGKTPLHLAANEGHLEIVEVLLKAGADVNAQDIFGKTPADIAADAGHEDIAEVLQKAAGSPTPTPTTPTPTPTTPTPTPTGSDLGKKLLEAARAGQDDEVRELLKAGADVNAKDYFSHTPLHLAARNGHLKIVEVLLKAGADVNAKDFAGKTPLHLAANEGHLEIVEVLLKAGADVNAQDIFGKTPADIAADAGHEDIAEVLQKAAGSPTPTPTTPTPTPTTPTPTPTGSDLGKKLLQAARAGQLDEVRELLKAGADVNAKDREGITPLHLAAQHGHLEIVEVLLKAGADVNAKDVWGRTPLHLAAWQGHLEIVEVLLKAGADVNAKDLAGATPLHVAALYGHLEIVEVLLKAGADVNAQDKSGKTPADLAARAGHQDIAEVLQKAAGSPTPTPTTPTPTPTTPTPTPTGSDLGKKLLQAARAGQLDEVRELLKAGADVNAKDREGKTPLHVAAQEGHLEIVEVLLKAGADVNAKDVWGRTPLHLAAWIGHLEIVEVLLKAGADVNAKDVSGATPLHAAALHGHLEIVEVLLNAGADVNAQDKSGKTPADLAARAGHQDIAEVLQKAAGSPTPTPTTPTPTPTTPTPTPTGSDLGKKLLQAARAGQLDEVRELLKAGADVNAKDQEGITPLHVAAHQGHLEIVEVLLKAGADVNAKDVWGRTPLHLAAWRGHLEIVEVLLKAGADVNAKDHAGATPLHAAALSGHLEIVEVLLKAGADVNAQDKSGKTPADLAARAGHQDIAEVLQKAA

Each binder was assayed against SARS-CoV-2 spike protein variant B.1.1.7 (SARS-CoV-2), P0DTC2 (assay: cell-based or functional assay).

Binder	VSV Pseudotype Neutralization Assay IC50 [ng/mL]
B1	4.6
B2	5.4
B3	11.7
B4	1.7
